# B1: polypeptide E456GlaAsp (receptor)
# chain: PVEDPCFRANCEYQCQPLNQTSYLCVCAEGFAPIPHEPHRCQMFCNQTACPADCDPNTQASCECPEGYILDDGFICTDIDECENGGFCSGVCHNLPGTFECICGPDSALVRHIGTDC
# modifications: gamma-carboxyglutamic acid (Gla) in place of the Glu inserted before Asp367 (third residue of the purified polypeptide, where Edman degradation detected no amino acid; Gla confirmed by amino acid analysis)
# B2: polypeptide E45 (receptor)
# chain: DPCFRANCEYQCQPLNQTSYLCVCAEGFAPIPHEPHRCQMFCNQTACPADCDPNTQASCECPEGYILDDGFICTDI
# Tests used:
# thrombin [1] = molecular target: thrombin
# protein C [2] = molecular target: protein C
# thrombin [3] = molecular target: thrombin; remark: listed apart in the source
# protein C [4] = molecular target: protein C; remark: listed apart in the source
Binder,"amount of activated protein C formed, 30 min after the polypeptide addition (Example 5) (% larger than with E456Glu) (thrombin [1])","amount of activated protein C formed, 30 min after the polypeptide addition (Example 5) (% larger than with E456Glu) (protein C [2])",production of activated protein C (thrombin [3]) [pmol],production of activated protein C (protein C [4]) [pmol]
B1,80,80,–,–
B2,–,–,1.7,1.7

# Source: US5574007
